Residue numbers refer to the chain shown, from its start. In names and notes the source's numbering stands.
T1: CD25 (IL-2Rα) on the surface of activated T cells (UniProt P01589 22-272, limits assumed)
T1 construct: whole, on cells; also called cell surface CD25
T1 sequence (looked up): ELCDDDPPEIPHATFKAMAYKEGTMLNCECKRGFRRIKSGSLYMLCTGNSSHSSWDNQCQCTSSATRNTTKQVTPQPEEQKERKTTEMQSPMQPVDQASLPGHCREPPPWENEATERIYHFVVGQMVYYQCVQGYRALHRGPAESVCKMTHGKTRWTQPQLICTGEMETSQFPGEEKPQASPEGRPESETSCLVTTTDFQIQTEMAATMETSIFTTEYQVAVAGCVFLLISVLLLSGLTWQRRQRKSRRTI

B1: HaMut1D (V69A, Q74P, N88D, C125A) (ligand)
chain: APTSSSTKKTQLQLEHLLLDLQMILNGINNYKNPKLTRMLTFKFYMPKKATELKHLQCLEEELKPLEEALNLAPSKNFHLRPRDLISDINVIVLELKGSETTFMCEYADETATIVEFLNRWITFAQSIISTLT
notes: IL-2 mutein without Fc; not shown: C-terminal FLAG and poly-His tag
B2: HaMut5D (K48E, V69A, Q74P, N88D, C125A) (ligand)
chain: B1 chain with K48E
notes: not shown: C-terminal FLAG and poly-His tag
B3: HaMut8D (K35R, K48E, E68D, N88D, C125A) (ligand)
chain: B1 chain with K35R, K48E, E68D, A69V, P74Q
notes: as for B2
B4: HaMut6D (E68D, V69A, Q74P, N88D, C125A) (ligand)
chain: B1 chain with E68D
notes: as for B2
B5: HaMut7D (N71R, V69A, Q74P, N88D, C125A) (ligand)
chain: B1 chain with N71R
notes: as for B2
B6: HaMut2D (N30S, V69A, Q74P, N88D, C125A) (ligand)
chain: B1 chain with N30S
notes: as for B2
B7: HaMut4D (T37A, V69A, Q74P, N88D, C125A) (ligand)
chain: B1 chain with T37A
notes: as for B2
B8: HaMut3D (K35R, V69A, Q74P, N88D, C125A) (ligand)
chain: B1 chain with K35R
notes: as for B2

Biological target: T1, CD25 (IL-2Rα) on the surface of …
Experiment: flow cytometry, binding to CD25 on the surface of activated T cells

| Binder | Kd | binding result |
| --- | --- | --- |
| B1 | ~2 nM | – |
| B2 | – | binds |
| B3 | – | binds |
| B4 | – | binds |
| B5 | ~0.2 nM | – |
| B6 | – | binds |
| B7 | – | binds |
| B8 | – | binds |

Source: patent US20140286898A1 (Amgen, published 2014)
